The assay deals with T1, human cyclin D1 (human, UniProt P24385 1-295).
T1 construct: Endogenous 35 kDa protein in co-immunoprecipitations; also called p35^cyclin D1; p35
The experiment in a line: anti-cyclin D1 immunoprecipitation.

T1 sequence (P24385 whole entry): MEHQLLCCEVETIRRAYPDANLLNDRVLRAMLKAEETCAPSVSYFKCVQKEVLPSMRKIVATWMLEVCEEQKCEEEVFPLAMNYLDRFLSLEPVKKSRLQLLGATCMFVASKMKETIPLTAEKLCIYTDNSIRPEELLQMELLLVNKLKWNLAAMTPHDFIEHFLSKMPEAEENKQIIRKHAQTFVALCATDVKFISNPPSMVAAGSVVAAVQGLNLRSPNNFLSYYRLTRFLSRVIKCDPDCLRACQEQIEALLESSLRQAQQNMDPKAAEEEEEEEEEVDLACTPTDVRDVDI

As for “p21 (polypeptide of 21 kDa apparent molecular weight)”, the share of cyclin D1-associated protein lost in RIPA buffer (0.1% SDS) against NP40 (0.5%) buffer was greater than 90%.

B1: human CDK4 (enzyme, UniProt P11802 1-303, looked up)
chain: MATSRYEPVAEIGVGAYGTVYKARDPHSGHFVALKSVRVPNGGGGGGGLPISTVREVALLRRLEAFEHPNVVRLMDVCATSRTDREIKVTLVFEHVDQDLRTYLDKAPPPGLPAETIKDLMRQFLRGLDFLHANCIVHRDLKPENILVTSGGTVKLADFGLARIYSYQMALTPVVVTLWYRAPEVLLQSTYATPVDMWSVGCIFAEMFRRKPLFCGNSEADQLGKIFDLIGLPPEDDWPRDVSLPRGAFPPRGPRPVQSVVPEMEESGAQLLLEMLTFNPHKRISAFRALQHSYLHKDEGNPE
notes: also called PSK-J3; p33^CDK4
Consider B1, for which the “share of cyclin D1-associated protein lost in RIPA buffer (0.1% SDS) against NP40 (0.5%) buffer” value was greater than 90%.

Values taken from EP0665886B1 (COLD SPRING HARBOR LABORATORY, dated 2003).
